Assay results published in paper PMC4824076, “Integrated microfluidic approach for quantitative high-throughput measurements of transcription factor binding affinities”.
Where a chain is given by its changes, count along the chain named.

How the values were obtained:
c-Jun;c-Fos (;) = c-Jun;c-Fos (;) (UniProt P05412+P01100); assay: MITOMI (QPID); conditions: QPID microfluidic MITOMI; 1 h incubation of in vitro expressed extract (about 25 ul, 50 ng protein) with spotted Cy5-dsDNA (0.0156-2 uM spotting dilutions, PEG …)
c-Jun [1] = molecular target: c-Jun (UniProt P05412); assay: MITOMI (QPID); conditions: QPID microfluidic MITOMI; 1 h incubation of in vitro expressed extract (about 25 ul, 50 ng protein) with spotted Cy5-dsDNA (0.0156-2 uM spotting dilutions, PEG …)
ATF1 = molecular target: T1, ATF1 (Homo sapiens, UniProt P18846); assay: MITOMI-type chip (QPID); rabbit reticulocyte lysate, 1 h; wash 50 mM HEPES; temperature not stated; DNA spotted at 0.0156-2 uM; conditions: tags: N-cMyc, C-His6 (kept); chain copies: 2; label: Cy5 on the primer strand
T1 sequence: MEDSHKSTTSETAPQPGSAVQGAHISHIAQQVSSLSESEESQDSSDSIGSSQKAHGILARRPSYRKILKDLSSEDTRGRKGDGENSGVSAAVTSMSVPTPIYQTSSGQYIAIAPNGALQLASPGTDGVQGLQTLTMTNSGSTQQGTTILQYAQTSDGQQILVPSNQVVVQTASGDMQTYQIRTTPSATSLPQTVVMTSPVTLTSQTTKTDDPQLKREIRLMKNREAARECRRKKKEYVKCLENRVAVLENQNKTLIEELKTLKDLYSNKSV

c-Jun [2] = molecular target: c-Jun (Homo sapiens, UniProt P05412); assay: as above; conditions: tags: N-cMyc, C-His6 (kept); chain copies: 2; label: Cy5 on the primer strand
c-Fos = c-Fos (Homo sapiens, UniProt P01100); assay: as above; conditions: tags: N-cMyc, C-His6 (kept); label: Cy5 on the primer strand
c-Fos/c-Jun = c-Fos/c-Jun (Homo sapiens, UniProt P01100;P05412 full;full); assay: as above; conditions: tags: c-Fos N-cMyc, C-His6; c-Jun HA and V5 at the termini (kept); copies: 1;1; label: Cy5 on the primer strand
Chain of c-Fos/c-Jun (P01100 whole entry, chain 1 of 2): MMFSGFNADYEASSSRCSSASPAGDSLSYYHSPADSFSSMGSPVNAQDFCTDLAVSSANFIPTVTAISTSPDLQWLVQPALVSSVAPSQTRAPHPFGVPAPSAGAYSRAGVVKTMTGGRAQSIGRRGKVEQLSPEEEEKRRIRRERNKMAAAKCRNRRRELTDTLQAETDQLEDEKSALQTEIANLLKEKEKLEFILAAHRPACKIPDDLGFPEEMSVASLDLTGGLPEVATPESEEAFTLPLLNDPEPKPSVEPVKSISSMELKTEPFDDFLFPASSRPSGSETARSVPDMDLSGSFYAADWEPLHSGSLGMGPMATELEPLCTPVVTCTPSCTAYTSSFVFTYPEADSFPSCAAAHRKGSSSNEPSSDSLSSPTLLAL
Chain of c-Fos/c-Jun (P05412 whole entry, chain 2 of 2): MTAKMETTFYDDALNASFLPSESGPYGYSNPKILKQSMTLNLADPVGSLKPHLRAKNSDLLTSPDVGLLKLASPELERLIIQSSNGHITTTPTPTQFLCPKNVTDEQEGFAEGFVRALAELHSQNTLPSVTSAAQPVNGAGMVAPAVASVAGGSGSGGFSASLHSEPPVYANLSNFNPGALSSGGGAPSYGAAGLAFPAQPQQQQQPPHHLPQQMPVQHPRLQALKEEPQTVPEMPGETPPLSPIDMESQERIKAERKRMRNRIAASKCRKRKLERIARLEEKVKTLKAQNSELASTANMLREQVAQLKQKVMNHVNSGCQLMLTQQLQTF

Chain of c-Jun (Homo sapiens, UniProt P05412) (P05412 whole entry): as the sequence (P05412 whole entry, chain 2 of 2) above
Chain of c-Jun (UniProt P05412) (P05412 252-315): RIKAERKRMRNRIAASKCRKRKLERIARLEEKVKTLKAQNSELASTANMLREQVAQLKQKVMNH
Chain of c-Jun;c-Fos (;) (P05412 252-315, chain 1 of 2): as the sequence (P05412 252-315) above
Chain of c-Jun;c-Fos (;) (P01100 137-200, chain 2 of 2): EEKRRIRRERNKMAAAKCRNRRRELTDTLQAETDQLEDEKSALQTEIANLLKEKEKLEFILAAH
Chain of c-Fos (P01100 whole entry): as the sequence (P01100 whole entry, chain 1 of 2) above

Q: For “GGCCACTACCGCTTCCTCCACATGGCGTCATGGTTTTCTCCACCAAGGAAGT (double strand) [oligo 5 (CRE half-site)]”, which Kd (c-Jun;c-Fos (;)) is on record?
A: 3500 nM

Q: With “TTATGACCTGGGAGTGAGTCAATGGAATCCACAGA (double strand) [oligo 4 (AP-1)]” as the molecule, how does the Kd (c-Jun;c-Fos (;)) read?
A: 500 nM

Q: With “TTATCCACTTGCGCTCGCCGAGTGGCGTCACCAGCGGTACTGTAATGACGAT (double strand) [oligo 6 (CRE half-site)]” as the molecule, how does the Kd (c-Jun;c-Fos (;)) read?
A: 4000 nM

Q: What does the source list for “TTATGACCTGGGAGTGACGTCATGGAATCCACAGA (double strand) [oligo 2 (CRE)]”?
A: Kd (c-Jun [1]): 2400 nM; Kd (c-Jun;c-Fos (;)): 150 nM

Q: How did the Kd (c-Jun [1]) turn out when “GGCCACTACCGCTTCCTCCACATGAGTCATGGTTTTCTCCACCAAGGAAGT (double strand) [oligo 3 (AP-1)]” was run?
A: 2500 nM

Q: And the Kd (c-Jun;c-Fos (;))?
A: 270 nM

Q: Which Kd (c-Jun [1]) does the source give for “GGCCACTACCGCTTCCTCCACATGACGTCATGGTTTTCTCCACCAAGGAAGT (double strand) [oligo 1 (CRE)]” here?
A: 1300 nM

Q: And the Kd (c-Jun;c-Fos (;))?
A: 190 nM

B1: oligo 2 (CRE) (dsDNA)
DNA 1: TTATGACCTGGGAGTGACGTCATGGAATCCACAGA
DNA 2: TCTGTGGATTCCATGACGTCACTCCCAGGTCATAA
Q: Which results are given for B1?
A: Kd (ATF1): 30 nM; Kd (c-Jun [2]): ~2400 nM; Kd (c-Fos): > 2000 nM; Kd (c-Fos/c-Jun): 150 nM

B2: oligo 4 (AP-1) (dsDNA)
DNA 1: B1 DNA 1 with C18G, G19T, T20C, C21A
DNA 2: B1 DNA 2 with G15T, A16G, C17A, G18C
Q: B2 was tested. Which Kd (ATF1) did it give?
A: ~17000 nM

Q: What about the Kd (c-Fos) of the same molecule?
A: > 2000 nM

Q: And the Kd (c-Fos/c-Jun)?
A: 500 nM

B3: oligo 3 (AP-1) (dsDNA)
DNA 1: GGCCACTACCGCTTCCTCCACATGAGTCATGGTTTTCTCCACCAAGGAAGT
DNA 2: ACTTCCTTGGTGGAGAAAACCATGACTCATGTGGAGGAAGCGGTAGTGGCC
Q: What does the source list for B3?
A: Kd (ATF1): ~11000 nM; Kd (c-Jun [2]): ~2500 nM; Kd (c-Fos): > 2000 nM; Kd (c-Fos/c-Jun): 270 nM

B4: oligo 7 (Mutant) (dsDNA)
DNA 1: GGCCACTACCGCTTCCTCCACAAATAAAATTGGTTTTCTCCACCAAGGAAGT
DNA 2: ACTTCCTTGGTGGAGAAAACCAATTTTATTTGTGGAGGAAGCGGTAGTGGCC
Q: Which results are given for B4?
A: Kd (ATF1): > 2000 nM; Kd (c-Fos): > 2000 nM

B5: oligo 6 (HS) (dsDNA)
DNA 1: TTATCCACTTGCGCTCGCCGAGTGGCGTCACCAGCGGTACTGTAATGACGAT
DNA 2: ATCGTCATTACAGTACCGCTGGTGACGCCACTCGGCGAGCGCAAGTGGATAA
Q: With B5 as the molecule, how does the Kd (ATF1) read?
A: 40 nM

Q: And the Kd (c-Fos)?
A: > 2000 nM

Q: And the Kd (c-Fos/c-Jun)?
A: ~4000 nM

B6: oligo 1 (CRE) (dsDNA)
DNA 1: GGCCACTACCGCTTCCTCCACATGACGTCATGGTTTTCTCCACCAAGGAAGT
DNA 2: ACTTCCTTGGTGGAGAAAACCATGACGTCATGTGGAGGAAGCGGTAGTGGCC
Q: Which Kd (ATF1) does the source give for B6 here?
A: 40 nM

Q: And the Kd (c-Jun [2])?
A: 1300 nM

Q: And the Kd (c-Fos)?
A: > 2000 nM

Q: And the Kd (c-Fos/c-Jun)?
A: 190 nM

B7: oligo 5 (HS) (dsDNA)
DNA 1: B6 DNA 1 with A25G
DNA 2: B6 DNA 2 with T28C
Q: What does the source list for B7?
A: Kd (ATF1): 170 nM; Kd (c-Fos): > 2000 nM; Kd (c-Fos/c-Jun): ~3500 nM
